Measurements from the supplement of paper PMC11246515.
± gives the standard deviation of the averaged measurements.

Assay: total protein half-life in vivo (active degradation + dilution); higher = more stable protein
[1] = E. coli NCM3722 delta-clpP delta-lon delta-hslV, growth: N-lim chemostat, doubling time 6 h
[2] = E. coli NCM3722 delta-clpP, growth: N-lim chemostat, doubling time 6 h
[3] = E. coli NCM3722 delta-hslV, growth: N-lim chemostat, doubling time 6 h
[4] = E. coli NCM3722 delta-lon, growth: N-lim chemostat, doubling time 6 h
[5] = E. coli NCM3722 delta-smpB, growth: N-lim chemostat, doubling time 6 h
[6] = wild type E. coli NCM3722, growth: C-lim chemostat, doubling time 3 h
[7] = wild type E. coli NCM3722, growth: C-lim chemostat, doubling time 6 h
[8] = wild type E. coli NCM3722, growth: C-lim chemostat, doubling time 12 h
[9] = wild type E. coli NCM3722, growth: N-lim chemostat, doubling time 6 h
[10] = wild type E. coli NCM3722, growth: N-lim chemostat, doubling time 12 h
[11] = wild type E. coli NCM3722, growth: P-lim chemostat, doubling time 6 h
[12] = wild type E. coli NCM3722, growth: P-lim chemostat, doubling time 12 h

Row | Sequence | total protein half-life in vivo [1] [h] | total protein half-life in vivo [2] [h] | total protein half-life in vivo [3] [h] | total protein half-life in vivo [4] [h] | total protein half-life in vivo [5] [h] | total protein half-life in vivo [6] [h] | total protein half-life in vivo [7] [h] | total protein half-life in vivo [8] [h] | total protein half-life in vivo [9] [h] | total protein half-life in vivo [10] [h] | total protein half-life in vivo [11] [h] | total protein half-life in vivo [12] [h]
1 | MDYRKIIKEIGRGKNHARDLDRDTARGLYAHMLNGEVPDLELGGVLIALRIKGEGEAEMLGFYEAMQNHTIKLTPPAGKPMPIVIPSYNGARKQANLTPLLAILLHKLGFPVVVHGVSEDPTRVLTETIFELMGITPTLHGGQAQAKLDEHQPVFMPVGAFCPPLEKQLAMRWRMGVRNSAHTLAKLATPFAEGEALRLSSVSHPEYIGRVAKFFSDIGGRALLMHGTEGEVYANPQRCPQINLIDREGMRVLYEKQDTAGSELLPQAKDPETTAQWIERCLAGSEPIPESLKIQMACCLVATGEAATISDGLARVNQAF | 4.81 ± 0.7 | 4.14 ± 0.24 | 4.41 ± 0.12 | 5.22 ± 0.37 | 4.44 ± 0.42 | 3.09 ± 0.67 | 5.84 ± 0.53 | 9.72 ± 1.2 | 4.54 ± 0.17 | 7.03 ± 0.37 | 5.83 ± 0.098 | 11.7 ± 0.24
2 | MKSILIEKPNQLAIVEREIPTPSAGEVRVKVKLAGICGSDSHIYRGHNPFAKYPRVIGHEFFGVIDAVGEGVESARVGERVAVDPVVSCGHCYPCSIGKPNVCTTLAVLGVHADGGFSEYAVVPAKNAWKIPEAVADQYAVMIEPFTIAANVTGHGQPTENDTVLVYGAGPIGLTIVQVLKGVYNVKNVIVADRIDERLEKAKESGADWAINNSQTPLGEIFTEKGIKPTLIIDAACHPSILKEAVTLASPAARIVLMGFSSEPSEVIQQGITGKELSIFSSRLNANKFPIVIDWLSKGLIKPEKLITHTFDFQHVADAISLFEQDQKHCCKVLLTFSE | 3.84 ± 0.53 | – | – | – | 2.11 | 2.26 ± 0.28 | 3.455 ± 0.03 | 8.98 ± 3.8 | 2.37 | – | 4.75 | 7.18
3 | MSFSCPLCHQPLSREKNSYICPQRHQFDMAKEGYVNLLPVQHKRSRDPGDSAEMMQARRAFLDAGHYQPLRDAIVAQLRERLDDKATAVLDIGCGEGYYTHAFADALPEITTFGLDVSKVAIKAAAKRYPQVTFCVASSHRLPFSDTSMDAIIRIYAPCKAEELARVVKPGGWVITATPGPRHLMELKGLIYNEVHLHAPHAEQLEGFTLQQSAELCYPMRLRGDEAVALLQMTPFAWRAKPEVWQTLAAKEVFDCQTDFNIHLWQRSY | 6.07 ± 0.81 | 4.95 ± 0.29 | 4.97 | 4.9 ± 0.089 | 4.28 ± 0.53 | 2.57 | 5.6 | 10.8 ± 0.77 | 5.34 ± 0.44 | 9.24 ± 0.73 | 5.78 ± 0.22 | 13.5 ± 2.7
4 | MKKLKINYLFIGILALLLAVALWPSIPWFGKADNRIAAIQARGELRVSTIHTPLTYNEINGKPFGLDYELAKQFADYLGVKLKVTVRQNISQLFDDLDNGNADLLAAGLVYNSERVKNYQPGPTYYSVSQQLVYKVGQYRPRTLGNLTAEQLTVAPGHVVVNDLQTLKETKFPELSWKVDDKKGSAELMEDVIEGKLDYTIADSVAISLFQRVHPELAVALDITDEQPVTWFSPLDGDNTLSAALLDFFNEMNEDGTLARIEEKYLGHGDDFDYVDTRTFLRAVDAVLPQLKPLFEKYAEEIDWRLLAAIAYQESHWDAQATSPTGVRGMMMLTKNTAQSLGITDRTDAEQSISGGVRYLQDMMSKVPESVPENERIWFALAAYNMGYAHMLDARALTAKTKGNPDSWADVKQRLPLLSQKPYYSKLTYGYARGHEAYAYVENIRKYQISLVGYLQEKEKQATEAAMQLAQDYPAVSPTELGKEKFPFLSFLSQSSSNYLTHSPSLLFSRKGSEEKQN [P0AGC5] | 4.75 | – | – | – | – | – | – | – | 1.64 | – | – | 3.13
5 | MFSGLLIILVPLIVGYLIPLRQQAALKVINQLLSWMVYLILFFMGISLAFLDNLASNLLAILHYSAVSITVILLCNIAALMWLERGLPWRNHHQQEKLPSRIAMALESLKLCGVVVIGFAIGLSGLAFLQHATEASEYTLILLLFLVGIQLRNNGMTLKQIVLNRRGMIVAVVVVVSSLIGGLINAFILDLPINTALAMASGFGWYSLSGILLTESFGPVIGSAAFFNDLARELIAIMLIPGLIRRSRSTALGLCGATSMDFTLPVLQRTGGLDMVPAAIVHGFILSLLVPILIAFFSA | – | – | – | – | – | – | 3.12 | – | – | 8.87 | – | 8.67 ± 0.3
6 | MSKIVKIIGREIIDSRGNPTVEAEVHLEGGFVGMAAAPSGASTGSREALELRDGDKSRFLGKGVTKAVAAVNGPIAQALIGKDAKDQAGIDKIMIDLDGTENKSKFGANAILAVSLANAKAAAAAKGMPLYEHIAELNGTPGKYSMPVPMMNIINGGEHADNNVDIQEFMIQPVGAKTVKEAIRMGSEVFHHLAKVLKAKGMNTAVGDEGGYAPNLGSNAEALAVIAEAVKAAGYELGKDITLAMDCAASEFYKDGKYVLAGEGNKAFTSEEFTHFLEELTKQYPIVSIEDGLDESDWDGFAYQTKVLGDKIQLVGDDLFVTNTKILKEGIEKGIANSILIKFNQIGSLTETLAAIKMAKDAGYTAVISHRSGETEDATIADLAVGTAAGQIKTGSMSRSDRVAKYNQLIRIEEALGEKAPYNGRKEIKGQA [P0A6P9] | 5.56 ± 0.57 | 5.57 ± 0.75 | 4.86 ± 0.065 | 4.95 ± 0.37 | 4.634 ± 0.024 | 3.19 ± 0.15 | 5.95 ± 0.21 | 12.831 ± 0.01 | 5.06 ± 0.19 | 8.35 ± 0.29 | 5.52 ± 0.69 | 11.3 ± 0.84
7 | MNMLEKIQSQLEHLSKSERKVAEVILASPDNAIHSSIAAMALEANVSEPTVNRFCRSMDTRGFPDFKLHLAQSLANGTPYVNRNVNEDDSVESYTGKIFESAMATLDHVRHSLDKSAINRAVDLLTQAKKIAFFGLGSSAAVAHDAMNKFFRFNVPVVYSDDIVLQRMSCMNCSDGDVVVLISHTGRTKNLVELAQLARENDAMVIALTSAGTPLAREATLAITLDVPEDTDIYMPMVSRLAQLTVIDVLATGFTLRRGAKFRDNLKRVKEALKESRFDKQLLNLSDDR | 6.3 ± 1.1 | 4.86 ± 0.47 | 3.12 ± 0.53 | 3.65 ± 0.91 | 3.23 ± 0.018 | 2.26 ± 0.21 | 4.52 ± 1.7 | 5.45 ± 0.083 | 3.77 ± 0.28 | 4.38 ± 0.15 | 2 ± 0.28 | 4.1 ± 1.5
8 | MRPAGRSNNQVRPVTLTRNYTKHAEGSVLVEFGDTKVLCTASIEEGVPRFLKGQGQGWITAEYGMLPRSTHTRNAREAAKGKQGGRTMEIQRLIARALRAAVDLKALGEFTITLDCDVLQADGGTRTASITGACVALVDALQKLVENGKLKTNPMKGMVAAVSVGIVNGEAVCDLEYVEDSAAETDMNVVMTEDGRIIEVQGTAEGEPFTHEELLILLALARGESNPL [P0CG19] | 5.037 ± 0.026 | 4.44 ± 0.39 | > 8 | 4.79 ± 0.48 | 4.48 ± 0.11 | – | – | 11.7 ± 3.8 | 3.47 ± 0.77 | 6.88 ± 0.082 | 5.58 ± 0.93 | –
